Consider 1 substance from article PMC9781616.

For the assay, the target named is Echovirus 11 (E11) strain 18-2135 full virus particle (capsid of VP1-4) (echovirus 11 (strain 18-2135)). Put plainly: cryo-EM structure.

For the substance “Decay-accelerating factor (DAF) full-length ectodomain, short consensus repeats SCR 1-4 (from UniProt P08174 35-285) (receptor)”, the DAF occupancy was 31.5% and the stoichiometry N (DAF molecules per particle) worked out at 20.
